Measured values: patent publication US20120288914A1, “CRYSTAL STRUCTURE OF GLYPHOSATE ACETYLTRANSFERASE (GLYAT) AND METHODS OF USE” (PIONEER HI BRED INTERNATIONAL INC., priority 2009, published 2012)

How the values were obtained:
R7 GLYAT = experiment: inhibition of R7 GLYAT with respect to glyphosate; type: biochemical, B. licheniformis
Text: See PDB:2JDD for the atomic coordinates and structure factors of the X-ray crystal structure of the ternary complex of R7 GLYAT with AcCoA and 3PG and PDB:2JDC for the atomic coordinates and structure factors of the X-ray crystal structure of the binary complex of R7 GLYAT with oxidized CoA and sulfate bound in the glyphosate binding pocket. See Tables 11 and 12 for the atoms of the R7 GLYAT variant polypeptide and of AcCoA that contact 3PG (i.e., the substrate binding cavity) and the residues of R7 that contact AcCoA, respectively.

[1] = substrate glyphosate; cited from earlier work

With `O=C(O)[C@H](O)COP(=O)(O)O` [3-phosphoglycerate] as the molecule, how does the mode of inhibition (R7 GLYAT) read?
The mode of inhibition was “competitive inhibitor”.

B1: R11: GLYAT variant from the eleventh round of DNA shuffling; SEQ ID NO: 2 (protein)
chain: MIEVKPINAEDTYDLRHRVLRPNQPIEACMFESDLTRSAFHLGGFYGGKLISVASFHQAEHSELQGKKQYQLRGVATLEGYREQKAGSSLVKHAEEILRKRGADMIWCNARTSASGYYRKLGFSEQGEVFDTPPVGPHILMYKRIT
modifications: R11 GLYAT variant polypeptide
With B1 as the molecule, how does the Km [1] read?
Its Km is 55 µM.

B2: R7: GLYAT variant resulting from seven rounds of DNA shuffling of a native GLYAT polypeptide; SEQ ID NO: 1 (protein)
chain: MIEVKPINAEDTYELRHRILRPNQPIEACMFESDLLRGAFHLGGYYGGKLISIASFHQAEHSELQGQKQYQLRGMATLEGYREQKAGSSLIKHAEEILRKRGADLLWCNARTSASGYYKKLGFSEQGEVFDTPPVGPHILMYKRIT
modifications: R7 GLYAT variant polypeptide
Which Km [1] does the source give for B2 here?
Its Km is 240 µM.

B3: native GLYAT: naturally occurring glyphosate N-acetyltransferase from Bacillus licheniformis; SEQ ID NO: 3 (protein, listed as Bacillus licheniformis)
chain: MIEVKPINAEDTYEIRHRILRPNQPLEACMYETDLLGGAFHLGGYYRGKLISIASFHKAEHSELEGEEQYQLRGMATLEGYREQKAGSTLIRHAEELLRKKGADLLWCNARTSVSGYYEKLGFSEQGEVYDIPPIGPHILMYKKLT
modifications: ST401 GAT
Which Km [1] does the source give for B3 here?
The Km was 1270 µM.
